Laboratory results reported in US20250090676A1 (SUTRO BIOPHARMA, published 2025).
Positions count from the first letter of the chain named.

Assays:
[1] = target: T1, cynomolgus monkey folate receptor alpha (cynomolgus monkey, UniProt P15328 25-234 (human entry)); experiment: FACS, CHO-cFOLR1 cells
T1 construct: Expressed on the surface of stably transfected CHO cells; also called cyno FolR1; CHO-cyno FolR1
Experimental: (§1) CHO cells were transfected to stably express human (CHO-hFOLR1), cynomolgus (CHO-cFOLR1), or mouse (CHO-mFOLR1) target molecule FOLR1 on the cell surface. Parental CHO cells were used as a negative control to determine background binding levels. Parental CHO and stably transfected CHO-hFOLR1, CHO-cFOLR1, and CHO-mFOLR1 cells were cultured in Ham's F-12: high glucose DMEM (50:50) (Corning, Cellgro-Mediatech) supplemented with 10% heat-inactivated fetal bovine serum (Corning, Cellgro-Mediatech), 1% Penicillin/Streptomycin (Corning, Cellgro-Mediatech) and 2 mmol/L-glutamax (Life Technology).
(§2) A mixture of fluoresecent-labeled parental CHO cells and unlabeled CHO-hFOLRlcells were prepared as follows. Parental CHO cells were washed twice in PBS and incubated in PBS containing with 1 nM CellTrace™ Oregon Green488® (Life Technologies) at 37° C. for 30 minutes. Labeled parental CHO cells were then washed 2× with Ham's F-12 media and 2× with FACS buffer (PBS with 1% bovine serum albumin). Unlabeled CHO-hFOLR1 cells were similarly washed and prepared. Labeled parental CHO and unlabeled CHO-hFOLR1 cells were combined at 1:1 ratio and seeded at 50 μL per well (200,000 cells per well) in 96 well polypropylene plates. Cells were mixed with 50 μL of test antibodies (i.e., anti-FOLR1 variants) serially diluted in FACS buffer and incubated on ice for 60 mins. […] Data were analyzed using FlowJo® software (FlowJo, LLC; Ashland, OR) to determine mean fluorescence intensities. Binding constants were calculated using the statistical software, GraphPad Prism (GraphPad Software; La Jolla, CA) using the nonlinear regression equation, one site-specific binding with Hill slope. Secondary antibody alone was used as a control, in addition to measuring non-specific antibody binding to CHO parental cells.

[2] = target: T2, human folate receptor alpha (hFOLR1) (human, UniProt P15328 25-234); experiment: FACS, CHO-hFOLR1 cells;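 note: flow cytometry of serially diluted antibodies binding CHO cells stably expressing the receptor, 60 min on ice, mixed with dye-tagged parental CHO as background control, one-site specific fit with Hill slope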
T2 construct: endogenous on FOLR1-positive KB and Igrov1 cells (cell killing); also called human FolR1; FolRα
T2 sequence (P15328 25-234 limits assumed): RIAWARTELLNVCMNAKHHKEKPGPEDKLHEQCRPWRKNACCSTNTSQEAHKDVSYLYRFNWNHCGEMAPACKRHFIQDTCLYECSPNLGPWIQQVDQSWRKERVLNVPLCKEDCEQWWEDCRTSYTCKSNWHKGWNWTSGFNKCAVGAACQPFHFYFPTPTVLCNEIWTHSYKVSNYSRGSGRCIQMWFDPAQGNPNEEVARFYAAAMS

[3] = target: T3, murine folate receptor alpha (mouse, UniProt P35846 25-232); experiment: FACS, CHO-mFOLR1 cells;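 note: flow cytometry binding of serially diluted test antibodies to transfected CHO cells on ice, mean fluorescence intensity, parental CHO cells give background, Kd from one-site specific binding fit with Hill slope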
T3 construct: Expressed on the surface of stably transfected CHO cells; also called mouse FolR1; CHO-mouse FolR1
T3 sequence (P35846 25-232 limits assumed): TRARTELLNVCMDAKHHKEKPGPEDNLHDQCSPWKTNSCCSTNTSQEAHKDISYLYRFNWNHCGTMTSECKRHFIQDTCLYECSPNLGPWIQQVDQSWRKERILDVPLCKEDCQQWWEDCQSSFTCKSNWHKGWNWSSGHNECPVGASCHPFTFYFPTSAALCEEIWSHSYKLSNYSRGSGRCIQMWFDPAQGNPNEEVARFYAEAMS
Experimental: as §1, §2

[4] = target: T2, human folate receptor alpha (hFOLR1); experiment: cell-based or functional assay
[5] = target: T4, human FOLR1-HIS (human, UniProt P15328 25-233); experiment: SPR (Biacore), antibody captured on anti-Fc, human FOLR1-HIS analyte, 25 C
T4 construct: Analyte of the Biacore assay; also called FolRα-ECD; extracellular domain of FOLR1; not shown: HIS tag
T4 sequence (P15328 25-233 limits assumed): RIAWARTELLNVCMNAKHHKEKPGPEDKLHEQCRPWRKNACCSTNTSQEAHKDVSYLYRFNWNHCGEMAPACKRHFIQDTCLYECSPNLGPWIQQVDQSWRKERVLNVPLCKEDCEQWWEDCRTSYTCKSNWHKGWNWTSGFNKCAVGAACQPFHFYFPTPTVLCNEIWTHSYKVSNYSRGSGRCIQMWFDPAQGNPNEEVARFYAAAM

T1 sequence (P15328 other isoform, or with tags, fused parts or gaps limits assumed): as the sequence (P15328 25-234 limits assumed) above, with I2T, W4R, R37K, Q117R, A146P, H171Y counted along it

B1: SRP1848-A01 (antibody, V domains shown)
VH: EVQLVESGGGLVQPGGSLRLSCAASGFNITRYSIHWVRQAPGKGLEWVAGILPESGGTSYADSVKGRFTISADTSKNTAYLQMNSLRAEDTAVYYCARHIYPWDWFSNYVLDYWGQGTLVTVSS
VL: not shown
notes: HC variant paired with trastuzumab LC, cell-free expressed, HIS- and FLAG-tagged; also called Antibody 1
Bmax (MFI) [1]: 22600 MFI | Kd [1]: 0.44 nM | Bmax (MFI) [2]: 25900 MFI | Kd [2]: 0.39 nM | Bmax (MFI) [3]: 16500 MFI | Kd [3]: 0.8 nM | Igrov, 2° Antibody Cell Killing, Nb-SC239: EC50 [4]: 0.015 nM | Igrov, 2° Antibody Cell Killing, Nb-SC239: Span [4]: 71% | KB, 2° Antibody Cell Killing, Nb-239: EC50 [4]: 0.064 nM | KB, 2° Antibody Cell Killing, Nb-239: Span [4]: 94%

B2: SRP1848-F04 (antibody, V domains shown)
VH: EVQLVESGGGLVQPGGSLRLSCAASGFNISNYSIHWVRQAPGKGLEWVGEIYPIDGITDYADSVKGRFTISADTSKNTAYLQMNSLRAEDTAVYYCARGSWFWRSGYGYYLDYWGQGTLVTVSS
VL: not shown
notes: HC variant paired with trastuzumab LC, cell-free expressed, HIS- and FLAG-tagged; also called Antibody 39
Bmax (MFI) [1]: 26400 MFI | Kd [1]: 0.55 nM | Bmax (MFI) [2]: 26900 MFI | Kd [2]: 0.73 nM | Bmax (MFI) [3]: 2740 MFI | Kd [3]: 11 nM | Igrov, 2° Antibody Cell Killing, Nb-SC239: EC50 [4]: 0.015 nM | Igrov, 2° Antibody Cell Killing, Nb-SC239: Span [4]: 73% | KB, 2° Antibody Cell Killing, Nb-239: EC50 [4]: 0.096 nM | KB, 2° Antibody Cell Killing, Nb-239: Span [4]: 93%

B3: SRP1848-F09 (antibody, V domains shown)
VH: B2 VH with Y32H, S33Y, E50G, Y52S, I54L, I57Y, S100A, F102S, L111I
VL: not shown
notes: IgG with common trastuzumab LC, cell-free expressed, HIS- and FLAG-tagged; also called Antibody 44
Kd [5]: 4.85 nM | koff [5]: 0.00679 s⁻¹ | kon [5]: 1.4e+06 M⁻¹ s⁻¹

B4: SRP1848-F10 (antibody, V domains shown)
VH: B2 VH with Y32N, E50S, Y52F, I54N, I57Y
VL: not shown
notes: IgG with common trastuzumab LC, cell-free expressed, HIS- and FLAG-tagged; also called Antibody 45
Kd [5]: 2.83 nM | koff [5]: 0.00247 s⁻¹ | kon [5]: 872000 M⁻¹ s⁻¹

B5: SRP1848-G03 (antibody, V domains shown)
VH: EVQLVESGGGLVQPGGSLRLSCAASGFNISTYYIHWVRQAPGKGLEWVGGITPSDGFTDYADSVKGRSTISADTSKNTAYLQMNSLRAEDTAVYYCARGSWSWPSGHGYFLDYWGQGTLVTVSS
VL: not shown
notes: IgG with common trastuzumab LC, cell-free expressed, HIS- and FLAG-tagged; also called Antibody 48
Kd [5]: 1.99 nM | koff [5]: 0.00197 s⁻¹ | kon [5]: 990000 M⁻¹ s⁻¹

B6: SRP1848-A06 (antibody, V domains shown)
VH: B2 VH with S30G, Y32S, S33Y, E50G, Y52T, I57N, S100A, F102S, L111I
VL: not shown
notes: HC variant paired with trastuzumab LC, cell-free expressed, HIS- and FLAG-tagged; also called Antibody 4
Bmax (MFI) [1]: 20200 MFI | Kd [1]: 0.3 nM | Bmax (MFI) [2]: 24500 MFI | Kd [2]: 0.47 nM | Bmax (MFI) [3]: 2770 MFI | Kd [3]: 2.4 nM | Igrov, 2° Antibody Cell Killing, Nb-SC239: Span [4]: 72% | KB, 2° Antibody Cell Killing, Nb-239: EC50 [4]: 0.046 nM | KB, 2° Antibody Cell Killing, Nb-239: Span [4]: 93%

B7: SRP1848-F06 (antibody, V domains shown)
VH: B2 VH with N31L, Y32S, S33Y, E50G, Y52S, I57N, S100F, F102A
VL: not shown
notes: IgG with common trastuzumab LC, cell-free expressed, HIS- and FLAG-tagged; also called Antibody 41
Kd [5]: 17 nM | koff [5]: 0.00775 s⁻¹ | kon [5]: 456000 M⁻¹ s⁻¹

B8: SRP1848-F11 (antibody, V domains shown)
VH: B2 VH with Y32N, S33Y, E50G, Y52T, I57N, K76M, F102Y, S105A, T118A
VL: not shown
notes: IgG with common trastuzumab LC, cell-free expressed, HIS- and FLAG-tagged; also called Antibody 46
Kd [5]: 4.71 nM | koff [5]: 0.0039 s⁻¹ | kon [5]: 828000 M⁻¹ s⁻¹

B9: SRP1848-F08 (antibody, V domains shown)
VH: B2 VH with S25G, Y32H, L45V, I54V, Q82R, F102Y, R104Q, G108S
VL: not shown
notes: IgG with common trastuzumab LC, cell-free expressed, HIS- and FLAG-tagged; also called Antibody 43
Kd [5]: 4.58 nM | koff [5]: 0.00272 s⁻¹ | kon [5]: 594000 M⁻¹ s⁻¹

B10: SRP1848-G01 (antibody, V domains shown)
VH: B2 VH with N31R, Y32H, E50W, Y52A, I54N, I57S, F102A, G108S, Y110F
VL: not shown
notes: IgG with common trastuzumab LC, cell-free expressed, HIS- and FLAG-tagged; also called Antibody 47
Kd [5]: 5.09 nM | koff [5]: 0.00226 s⁻¹ | kon [5]: 444000 M⁻¹ s⁻¹

B11: SRP1848-F07 (antibody, V domains shown)
VH: B2 VH with Y32H, I54N, R87S, F102D, G108S
VL: not shown
notes: IgG with common trastuzumab LC, cell-free expressed, HIS- and FLAG-tagged; also called Antibody 42
Kd [5]: 1.56 nM | koff [5]: 0.00249 s⁻¹ | kon [5]: 1.6e+06 M⁻¹ s⁻¹

B12: SRP1848-A04 (antibody, V domains shown)
VH: B2 VH with S30D, N31Q, Y32S, E50V, I54V, I57T, S100A, F102S, L111I
VL: not shown
notes: HC variant paired with trastuzumab LC, cell-free expressed, HIS- and FLAG-tagged; also called Antibody 3
Bmax (MFI) [1]: 23100 MFI | Kd [1]: 0.3 nM | Bmax (MFI) [2]: 26800 MFI | Kd [2]: 0.43 nM | Bmax (MFI) [3]: 3890 MFI | Kd [3]: 2 nM | Igrov, 2° Antibody Cell Killing, Nb-SC239: EC50 [4]: 0.015 nM | Igrov, 2° Antibody Cell Killing, Nb-SC239: Span [4]: 64% | KB, 2° Antibody Cell Killing, Nb-239: EC50 [4]: 0.052 nM | KB, 2° Antibody Cell Killing, Nb-239: Span [4]: 92%

B13: SRP1848-H01 (antibody, V domains shown)
VH: B2 VH with S30R, N31T, Y32Q, V48I, E50D, Y52F, F102S, R104P, Y107M, G108D
VL: not shown
notes: IgG with common trastuzumab LC, cell-free expressed, HIS- and FLAG-tagged; also called Antibody 55
Kd [5]: 2.11 nM

B14: SRP1848-E03 (antibody, V domains shown)
VH: B5 VH with V12A, S30G, T31N, S54R, S68F, M83V, S105A, G108S, F110Y
VL: not shown
notes: IgG with common trastuzumab LC, cell-free expressed, HIS- and FLAG-tagged; also called Antibody 33
Kd [5]: 2.67 nM | koff [5]: 0.00183 s⁻¹ | kon [5]: 688000 M⁻¹ s⁻¹

B15: SRP1848-E06 (antibody, V domains shown)
VH: EVQLVESGGGLVQPSGSLRLSCAASGFNINRYYIHWVRQAPGKGLEWVGGITPNDGYTDYADSVEGRFTTSADTSKNTAYLQMNSLRAEDTAVYYCARGTWSWPSGHSYYLDYWGQGTLVTVSS
VL: not shown
notes: IgG with common trastuzumab LC, cell-free expressed, HIS- and FLAG-tagged; also called Antibody 35
Kd [5]: 1.63 nM

B16: SRP1848-D03 (antibody, V domains shown)
VH: EVQLVESGGGVVQPGGSLRLSCAASGFNIRYFSIHWVRQAPGKGLEWVGDIFPNDGSTDYADSVKGRFTISADTSKNTAYLQMNSLRAEETAVYYCARGHWSWPSGYWYYLDYWGQGTLVTVSS
VL: not shown
notes: IgG with common trastuzumab LC, cell-free expressed, HIS- and FLAG-tagged; also called Antibody 25
Kd [5]: 5.19 nM

B17: SRP1848-G04 (antibody, V domains shown)
VH: EVQLVESGGGLVQPGGSLRLSCAASGFNIHSTDIHWVRQAPGKGLEWVAYITPAGGATFYADSVKGRFTISADTSKNTAYLQMNSLRAEDTAVYYCARYPYWFAGYMDYWGQGTLVTVSS
VL: not shown
notes: IgG with common trastuzumab LC, cell-free expressed, HIS- and FLAG-tagged; also called Antibody 49
Kd [5]: 6.4 nM | koff [5]: 0.00379 s⁻¹ | kon [5]: 591000 M⁻¹ s⁻¹

B18: SRP1848-G11 (antibody, V domains shown)
VH: B17 VH with H30S, F59W, A104S
VL: not shown
notes: IgG with common trastuzumab LC, cell-free expressed, HIS- and FLAG-tagged; also called Antibody 54
Kd [5]: 9.14 nM | koff [5]: 0.00637 s⁻¹ | kon [5]: 696000 M⁻¹ s⁻¹

B19: SRP1848-G10 (antibody, V domains shown)
VH: B17 VH with G16S, H30R, F59Y, M107I
VL: not shown
notes: IgG with common trastuzumab LC, cell-free expressed, HIS- and FLAG-tagged; also called Antibody 53
Kd [5]: 4.55 nM | koff [5]: 0.00345 s⁻¹ | kon [5]: 758000 M⁻¹ s⁻¹

B20: SRP1848-G06 (antibody, V domains shown)
VH: B17 VH with H30R, F59Y, S63N, Y99Q
VL: not shown
notes: IgG with common trastuzumab LC, cell-free expressed, HIS- and FLAG-tagged; also called Antibody 50
Kd [5]: 6.7 nM | koff [5]: 0.00381 s⁻¹ | kon [5]: 569000 M⁻¹ s⁻¹

B21: SRP1848-G07 (antibody, V domains shown)
VH: B17 VH with F59W, Y101F
VL: not shown
notes: IgG with common trastuzumab LC, cell-free expressed, HIS- and FLAG-tagged; also called Antibody 51
Kd [5]: 7.45 nM | koff [5]: 0.00451 s⁻¹ | kon [5]: 605000 M⁻¹ s⁻¹

B22: SRP1848-G09 (antibody, V domains shown)
VH: B17 VH with H30R, S31G, Y99H, P100E, A104S
VL: not shown
notes: IgG with common trastuzumab LC, cell-free expressed, HIS- and FLAG-tagged; also called Antibody 52
Kd [5]: 7.56 nM | koff [5]: 0.00646 s⁻¹ | kon [5]: 856000 M⁻¹ s⁻¹
